How the values were obtained:
[1] = target: Myc-RUNX3, Q13761
[2] = target: RUNX3 (Runt-related transcription factor 3) protein, Q13761
Sequence of RUNX3 (Runt-related transcription factor 3) protein, Q13761 (Q13761 whole entry): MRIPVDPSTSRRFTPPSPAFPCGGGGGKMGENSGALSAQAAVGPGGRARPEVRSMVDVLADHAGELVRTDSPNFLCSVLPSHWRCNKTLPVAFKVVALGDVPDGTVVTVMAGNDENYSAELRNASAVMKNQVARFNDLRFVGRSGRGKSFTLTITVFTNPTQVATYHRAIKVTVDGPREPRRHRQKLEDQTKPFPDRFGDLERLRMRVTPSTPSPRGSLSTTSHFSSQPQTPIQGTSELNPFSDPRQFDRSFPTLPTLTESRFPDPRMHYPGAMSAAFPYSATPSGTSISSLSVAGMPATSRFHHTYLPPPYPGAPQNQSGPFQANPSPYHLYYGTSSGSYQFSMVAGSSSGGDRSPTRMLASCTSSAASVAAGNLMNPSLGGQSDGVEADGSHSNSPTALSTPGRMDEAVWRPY

Sequence of Myc-RUNX3, Q13761 (Q13761 whole entry): as above

Protein	phosphorylation of RUNX3 at Ser-356 (immunoblot) [1]	phosphorylation of RUNX3 at Ser-356 (immunoblot) [2]
CDK4-WT (over-expressed) (protein) MATSRYEPVAEIGVGAYGTVYKARDPHSGHFVALKSVRVPNGGGGGGGLPISTVREVALLRRLEAFEHPNVVRLMDVCATSRTDREIKVTLVFEHVDQDLRTYLDKAPPPGLPAETIKDLMRQFLRGLDFLHANCIVHRDLKPENILVTSGGTVKLADFGLARIYSYQMALTPVVVTLWYRAPEVLLQSTYATPVDMWSVGCIFAEMFRRKPLFCGNSEADQLGKIFDLIGLPPEDDWPRDVSLPRGAFPPRGPRPVQSVVPEMEESGAQLLLEMLTFNPHKRISAFRALQHSYLHKDEGNPE	The over-expressed CDK4-WT phosphorylated Myc-RUNX3 2 to 4 hours after serum stimulation	–
Flag-CDK4-T172A (protein) MATSRYEPVAEIGVGAYGTVYKARDPHSGHFVALKSVRVPNGGGGGGGLPISTVREVALLRRLEAFEHPNVVRLMDVCATSRTDREIKVTLVFEHVDQDLRTYLDKAPPPGLPAETIKDLMRQFLRGLDFLHANCIVHRDLKPENILVTSGGTVKLADFGLARIYSYQMALAPVVVTLWYRAPEVLLQSTYATPVDMWSVGCIFAEMFRRKPLFCGNSEADQLGKIFDLIGLPPEDDWPRDVSLPRGAFPPRGPRPVQSVVPEMEESGAQLLLEMLTFNPHKRISAFRALQHSYLHKDEGNPE	–	did not phosphorylate the 356th serine of RUNX3

Source: patent US20210330742
